Source: paper PMC5646241, “Copper Chaperone CupA and Zinc Control CopY Regulation of the Pneumococcal cop Operon”

Assays:
[1] = biological target: CopY, repressor of the Streptococcus pneumoniae cop operon (Streptococcus pneumoniae TIGR4); test: SEC-MALS; WTC-010S5 column, 50 mM Tris-HCl pH 7.5, 100 mM NaCl, 5% glycerol, with 100 µM zinc, 25°C
[2] = biological target: CopY, repressor of the Streptococcus pneumoniae cop operon (Streptococcus pneumoniae TIGR4); test: SEC-MALS; WTC-010S5 column, 50 mM Tris-HCl pH 7.5, 100 mM NaCl, 5% glycerol, without zinc (apo CopY), 25°C
[3] = biological target: CopY, zinc-bound (Streptococcus pneumoniae TIGR4, UniProt A0ACD7PQP7 1-131); test: fluorescence polarization; 10 uM Zn2+; FP: 50 mM Tris-HCl pH 7.5, 100 mM NaCl, 5% glycerol, Chelex-treated, 10 nM DNA, temperature not stated; EMSA: TBS, 20 ul, 4 C, 50 uM CopY, 50 ng DNA, 6% TBE gel, 0.5x TB running buffer without EDTA; conditions: protein: recombinant; tags: pMCSG7 vector construct (tag not given); chain copies: 4; label: FAM on strand 1; blunt
[4] = biological target: T1, CopY (copper-responsive cop operon repressor) (Streptococcus pneumoniae TIGR4, UniProt A0ACD7PQP7 1-131); test: fluorescence polarization; apo, no metal; FP: 50 mM Tris-HCl pH 7.5, 100 mM NaCl, 5% glycerol, Chelex-treated, 10 nM DNA, temperature not stated; EMSA: TBS, 20 ul, 4 C, 50 uM CopY, 50 ng DNA, 6% TBE gel, 0.5x TB running buffer without EDTA; conditions: protein: recombinant; tags: pMCSG7 vector construct (tag not given); chain copies: 2; label: FAM on strand 1; blunt
[5] = biological target: T1, CopY (copper-responsive cop operon …); test: fluorescence polarization; apo; described as nonspecific binding, linear; FP: 50 mM Tris-HCl pH 7.5, 100 mM NaCl, 5% glycerol, Chelex-treated, 10 nM DNA, temperature not stated; EMSA: TBS, 20 ul, 4 C, 50 uM CopY, 50 ng DNA, 6% TBE gel, 0.5x TB running buffer without EDTA; conditions: protein: recombinant; tags: pMCSG7 vector construct (tag not given); chain copies: 2; label: FAM on strand 1; blunt
[6] = biological target: T1, CopY (copper-responsive cop operon …); test: EMSA; no metal; 50 uM CopY; FP: 50 mM Tris-HCl pH 7.5, 100 mM NaCl, 5% glycerol, Chelex-treated, 10 nM DNA, temperature not stated; EMSA: TBS, 20 ul, 4 C, 50 uM CopY, 50 ng DNA, 6% TBE gel, 0.5x TB running buffer without EDTA; conditions: protein: recombinant; tags: pMCSG7 vector construct (tag not given); chain copies: 2; label: 3' biotin on strand 1; blunt

## CopY, repressor of the Streptococcus pneumoniae cop operon (natural protein)
[1]
  stoichiometry N: 4
[2]
  stoichiometry N: 2

B1: pSP_0727 cop promoter, FAM (dsDNA)
DNA 1: TCTATAATTGACAAATGTAGATTTTAAGAGTATACTGATGAGTGTAATTGACAAATG
DNA 2: CATTTGTCAATTACACTCATCAGTATACTCTTAAAATCTACATTTGTCAATTATAGA
[3]
  Kd: 0.52 ± 0.13 µM
[4]
  Kd: 4.24 ± 0.78 µM

B2: pSP_1541 promoter, FAM (dsDNA)
DNA 1: GCGAACCTCACTTACCCCTTGCAAAGTCTTGGGGTCATTAGA
DNA 2: TCTAATGACCCCAAGACTTTGCAAGGGGTAAGTGAGGTTCGC
[5]
  binding result: no binding

B3: pSP_1541 promoter, biotinylated (dsDNA)
DNA 1: GCGAACCTCACTTACCCCTTGCAAAGTCTTGGGGTCATTAGA
DNA 2: TCTAATGACCCCAAGACTTTGCAAGGGGTAAGTGAGGTTCGC
[6]
  binding result: no binding
